According to patent US12099068B2, “Biomarkers for graft-versus-host disease” (Incyte Corporation, priority 2018, dated 2024):

B1: SCARF2 (protein, UniProt Q96GP6 44-871, looked up)
Scavenger receptor class F …: QELNPRGRNVCRAPGSQVPTCCAGWRQQGDECGIAVCEGNSTCSENEVCVRPGECRCRHGYFGANCDTKCPRQFWGPDCKELCSCHPHGQCEDVTGQCTCHARRWGARCEHACQCQHGTCHPRSGACRCEPGWWGAQCASACYCSATSRCDPQTGACLCHAGWWGRSCNNQCACNSSPCEQQSGRCQCRERTFGARCDRYCQCFRGRCHPVDGTCACEPGYRGKYCREPCPAGFYGLGCRRRCGQCKGQQPCTVAEGRCLTCEPGWNGTKCDQPCATGFYGEGCSHRCPPCRDGHACNHVTGKCTRCNAGWIGDRCETKCSNGTYGEDCAFVCADCGSGHCDFQSGRCLCSPGVHGPHCNVTCPPGLHGADCAQACSCHEDTCDPVTGACHLETNQRKGVMGAGALLVLLVCLLLSLLGCCCACRGKDPTRRPRPRRELSLGRKKAPHRLCGRFSRISMKLPRIPLRRQKLPKVVVAHHDLDNTLNCSFLEPPSGLEQPSPSWSSRASFSSFDTTDEGPVYCVPHEEAPAESRDPEVPTVPAEAPAPSPVPLTTPASAEEAIPLPASSDSERSASSVEGPGGALYARVARREARPARARGEIGGLSLSPSPERRKPPPPDPATKPKVSWIHGKHSAAAAGRAPSPPPPGSEAAPSPSKRKRTPSDKSAHTVEHGSPRTRDPTPRPPGLPEEATALAAPSPPRARARGRGPGLLEPTDAGGPPRSAPEAASMLAAELRGKTRSLGRAEVALGAQGPREKPAPPQKAKRSVPPASPARAPPATETPGPEKAATDLPAPETPRKKTPIQKPPRKKSREAAGELGRAGAPTL
B2: RASSF2 (protein, UniProt P50749 1-326, looked up)
Ras association …: MDYSHQTSLVPCGQDKYISKNELLLHLKTYNLYYEGQNLQLRHREEEDEFIVEGLLNISWGLRRPIRLQMQDDNERIRPPPSSSSWHSGCNLGAQGTTLKPLTVPKVQISEVDAPPEGDQMPSSTDSRGLKPLQEDTPQLMRTRSDVGVRRRGNVRTPSDQRRIRRHRFSINGHFYNHKTSVFTPAYGSVTNVRINSTMTTPQVLKLLLNKFKIENSAEEFALYVVHTSGEKQKLKATDYPLIARILQGPCEQISKVFLMEKDQVEEVTYDVAQYIKFEMPVLKSFIQKLQEEEDREVKKLMRKYTVLRLMIRQRLEEIAETPATI
B3: IgG Fc receptor II-b (protein, UniProt P31994 43-310, looked up)
Low affinity immunoglobulin …: TPAAPPKAVLKLEPQWINVLQEDSVTLTCRGTHSPESDSIQWFHNGNLIPTHTQPSYRFKANNNDSGEYTCQTGQTSLSDPVHLTVLSEWLVLQTPHLEFQEGETIVLRCHSWKDKPLVKVTFFQNGKSKKFSRSDPNFSIPQANHSHSGDYHCTGNIGYTLYSSKPVTITVQAPSSSPMGIIVAVVTGIAVAAIVAAVVALIYCRKKRISALPGYPECREMGETLPEKPANPTNPDEADKVGAENTITYSLLMHPDALEEPDDQNRI
B4: ITGB6 (protein, UniProt P18564 22-788, looked up)
Integrin beta-6: GCALGGAETCEDCLLIGPQCAWCAQENFTHPSGVGERCDTPANLLAKGCQLNFIENPVSQVEILKNKPLSVGRQKNSSDIVQIAPQSLILKLRPGGAQTLQVHVRQTEDYPVDLYYLMDLSASMDDDLNTIKELGSRLSKEMSKLTSNFRLGFGSFVEKPVSPFVKTTPEEIANPCSSIPYFCLPTFGFKHILPLTNDAERFNEIVKNQKISANIDTPEGGFDAIMQAAVCKEKIGWRNDSLHLLVFVSDADSHFGMDSKLAGIVIPNDGLCHLDSKNEYSMSTVLEYPTIGQLIDKLVQNNVLLIFAVTQEQVHLYENYAKLIPGATVGLLQKDSGNILQLIISAYEELRSEVELEVLGDTEGLNLSFTAICNNGTLFQHQKKCSHMKVGDTASFSVTVNIPHCERRSRHIIIKPVGLGDALELLVSPECNCDCQKEVEVNSSKCHHGNGSFQCGVCACHPGHMGPRCECGEDMLSTDSCKEAPDHPSCSGRGDCYCGQCICHLSPYGNIYGPYCQCDNFSCVRHKGLLCGGNGDCDCGECVCRSGWTGEYCNCTTSTDSCVSEDGVLCSGRGDCVCGKCVCTNPGASGPTCERCPTCGDPCNSKRSCIECHLSAAGQAREECVDKCKLAGATISEEEDFSKDGSVSCSLQGENECLITFLITTDNEGKTIIHSINEKDCPKPPNIPMIMLGVSLAILLIGVVLLCIWKLLVSFHDRKEVAKFEAERSKAKWQTGTNPLYRGSTSTFKNVTYKHREKQKVDLSTDC
B5: RTN4R (protein, UniProt Q9BZR6 27-447, looked up)
Reticulon-4 receptor: CPGACVCYNEPKVTTSCPQQGLQAVPVGIPAASQRIFLHGNRISHVPAASFRACRNLTILWLHSNVLARIDAAAFTGLALLEQLDLSDNAQLRSVDPATFHGLGRLHTLHLDRCGLQELGPGLFRGLAALQYLYLQDNALQALPDDTFRDLGNLTHLFLHGNRISSVPERAFRGLHSLDRLLLHQNRVAHVHPHAFRDLGRLMTLYLFANNLSALPTEALAPLRALQYLRLNDNPWVCDCRARPLWAWLQKFRGSSSEVPCSLPQRLAGRDLKRLAANDLQGCAVATGPYHPIWTGRATDEEPLGLPKCCQPDAADKASVLEPGRPASAGNALKGRVPPGDSPPGNGSGPRHINDSPFGTLPGSAEPPLTAVRPEGSEPPGFPTSGPRRRPGCSRKNRTRSHCRLGQAGSGGGGTGDSEGS
B6: LAIR1 (protein, UniProt Q6GTX8 22-287, looked up)
Leukocyte-associated …: QEEDLPRPSISAEPGTVIPLGSHVTFVCRGPVGVQTFRLERDSRSTYNDTEDVSQASPSESEARFRIDSVREGNAGLYRCIYYKPPKWSEQSDYLELLVKESSGGPDSPDTEPGSSAGPTQRPSDNSHNEHAPASQGLKAEHLYILIGVSVVFLFCLLLLVLFCLHRQNQIKQGPPRSKDEEQKPQQRPDLAVDVLERTADKATVNGLPEKDRETDTSALAAGSSQEVTYAQLDHWALTQRTARAVSPQSTKPMAESITYAAVARH
B7: RGMB (protein, UniProt Q6NW40 46-413, looked up)
Repulsive guidance molecule B: GDCQQPAQCRIQKCTTDFVSLTSHLNSAVDGFDSEFCKALRAYAGCTQRTSKACRGNLVYHSAVLGISDLMSQRNCSKDGPTSSTNPEVTHDPCNYHSHAGAREHRRGDQNPPSYLFCGLFGDPHLRTFKDNFQTCKVEGAWPLIDNNYLSVQVTNVPVVPGSSATATNKITIIFKAHHECTDQKVYQAVTDDLPAAFVDGTTSGGDSDAKSLRIVERESGHYVEMHARYIGTTVFVRQVGRYLTLAIRMPEDLAMSYEESQDLQLCVNGCPLSERIDDGQGQVSAILGHSLPRTSLVQAWPGYTLETANTQCHEKMPVKDIYFQSCVFDLLTTGDANFTAAAHSALEDVEALHPRKERWHIFPSSGN
B8: PVALB (protein, UniProt P20472 2-110, looked up)
Parvalbumin alpha: SMTDLLNAEDIKKAVGAFSATDSFDHKKFFQMVGLKKKSADDVKKVFHMLDKDKSGFIEEDELGFILKGFSPDARDLSAKETKMLMAAGDKDGDGKIGVDEFSTLVAES
B9: GLO1 (protein, UniProt Q04760 2-184, looked up)
Lactoylglutathione lyase: AEPQPPSGGLTDEAALSCCSDADPSTKDFLLQQTMLRVKDPKKSLDFYTRVLGMTLIQKCDFPIMKFSLYFLAYEDKNDIPKEKDEKIAWALSRKATLELTHNWGTEDDETQSYHNGNSDPRGFGHIGIAVPDVYSACKRFEELGVKFVKKPDDGKMKGLAFIQDPDGYWIEILNPNKMATLM
B10: SCGB3A2 (protein, UniProt Q96PL1 22-93, looked up)
Secretoglobin family 3A …: FLINKVPLPVDKLAPLPLDNILPFMDPLKLLLKTLGISVEHLVEGLRKCVNELGPEASEAVKKLLEALSHLV

System: plasma proteins
Experiment: Plasma proteins modulated between baseline and day 28 in responders (CR, VGPR, PR; n = 19), Example 6 (Table 13)
Type: in vivo, human
Conditions: plasma protein (OLINK NPX); responders (CR, VGPR, PR; n = 19); itacitinib 200 mg or 300 mg QD with corticosteroids; day 28 vs baseline
Method: Due to the limited sample size, steroid-naive (N=10) and steroid-refractory (N=18) patients were combined for further analysis. Broad proteomic analysis of over 1000 proteins was conducted by OLINK Proteomics (Watertown, MA) using a proximity extension assay as described by the manufacturer. Data are presented as normalized protein expression (NPX) in log 2 scale. Statistical differences were evaluated using unpaired and paired t tests, one-way […] (ANOVA), and Pearson Correlation. Significance was conferred when P<0.05.
Longitudinal differences in protein expression were analyzed by evaluating plasma samples from baseline/screening and day 28.

Molecule | Fold Change, Increased Expression from Baseline to Day 28 | Fold Change, Decreased Expression from Baseline to Day 28
B1 | 1.1639 | 
B2 |  | −1.5477
B3 |  | −1.3893
B4 | 1.152 | 
B5 | 1.195 | 
B6 |  | −1.3173
B7 | 1.1254 | 
B8 |  | −2.0291
B9 |  | −1.2571
B10 | 1.3677 | 
